# Source: patent US11795460B2, “Compositions and methods for TTR gene editing and treating ATTR amyloidosis” (Intellia Therapeutics, Inc., priority 2017, dated 2023)
# Strand notation (5' to 3'): a small letter for the sugar, then the base; units joined by * are phosphorothioate-linked, units joined directly phosphodiester-linked; [ ] holds rarer units or linkages, { } end groups; capitals alone tell only the bases. m = 2'-O-methyl; r = 2'-OH (RNA)
# B1: G000486: TTR sgRNA modified sequence, Human, SEQ ID No. 93; guide sequence of CR003339 (nucleic acid)
# guide: mA*mC*mA*rCrArArArUrArCrCrArGrUrCrCrArGrCrArGrUrUrUrUrArGrAmGmCmUmAmGmAmAmAmUmAmGmCrArArGrUrUrArArArArUrArArGrGrCrUrArGrUrCrCrGrUrUrArUrCrAmAmCmUmUmGmAmAmAmAmAmGmUmGmGmCmAmCmCmGmAmGmUmCmGmGmUmGmCmU*mU*mU*mU
# B2: G000492: TTR sgRNA modified sequence, Human, SEQ ID No. 99; guide sequence of CR003342 (nucleic acid)
# guide: mC*mU*mU*rCrUrCrUrArCrArCrCrCrArGrGrGrCrArCrGrUrUrUrUrArGrAmGmCmUmAmGmAmAmAmUmAmGmCrArArGrUrUrArArArArUrArArGrGrCrUrArGrUrCrCrGrUrUrArUrCrAmAmCmUmUmGmAmAmAmAmAmGmUmGmGmCmAmCmCmGmAmGmUmCmGmGmUmGmCmU*mU*mU*mU
# B3: G000487: TTR sgRNA modified sequence, Human, SEQ ID No. 94; guide sequence of CR003357 (nucleic acid)
# guide: mU*mU*mC*rUrUrUrGrGrCrArArCrUrUrArCrCrCrArGrGrUrUrUrUrArGrAmGmCmUmAmGmAmAmAmUmAmGmCrArArGrUrUrArArArArUrArArGrGrCrUrArGrUrCrCrGrUrUrArUrCrAmAmCmUmUmGmAmAmAmAmAmGmUmGmGmCmAmCmCmGmAmGmUmCmGmGmUmGmCmU*mU*mU*mU
# B4: G000491: TTR sgRNA modified sequence, Human, SEQ ID No. 98; guide sequence of CR003338 (nucleic acid)
# guide: mA*mU*mA*rCrCrArGrUrCrCrArGrCrArArGrGrCrArGrGrUrUrUrUrArGrAmGmCmUmAmGmAmAmAmUmAmGmCrArArGrUrUrArArArArUrArArGrGrCrUrArGrUrCrCrGrUrUrArUrCrAmAmCmUmUmGmAmAmAmAmAmGmUmGmGmCmAmCmCmGmAmGmUmCmGmGmUmGmCmU*mU*mU*mU
# B5: G000496: TTR sgRNA modified sequence, Human, SEQ ID No. 103; guide sequence of CR005304 (nucleic acid)
# guide: mG*mG*mC*rCrGrUrGrCrArUrGrUrGrUrUrCrArGrArArGrUrUrUrUrArGrAmGmCmUmAmGmAmAmAmUmAmGmCrArArGrUrUrArArArArUrArArGrGrCrUrArGrUrCrCrGrUrUrArUrCrAmAmCmUmUmGmAmAmAmAmAmGmUmGmGmCmAmCmCmGmAmGmUmCmGmGmUmGmCmU*mU*mU*mU
# B6: G000485: TTR sgRNA modified sequence, Human, SEQ ID No. 92; guide sequence of CR003336 (nucleic acid)
# guide: mC*mC*mU*rCrCrUrCrUrGrCrCrUrUrGrCrUrGrGrArCrGrUrUrUrUrArGrAmGmCmUmAmGmAmAmAmUmAmGmCrArArGrUrUrArArArArUrArArGrGrCrUrArGrUrCrCrGrUrUrArUrCrAmAmCmUmUmGmAmAmAmAmAmGmUmGmGmCmAmCmCmGmAmGmUmCmGmGmUmGmCmU*mU*mU*mU
# B7: G000495: TTR sgRNA modified sequence, Human, SEQ ID No. 102; guide sequence of CR003343 (nucleic acid)
# guide: mC*mA*mG*rArGrGrArCrArCrUrUrGrGrArUrUrCrArCrGrUrUrUrUrArGrAmGmCmUmAmGmAmAmAmUmAmGmCrArArGrUrUrArArArArUrArArGrGrCrUrArGrUrCrCrGrUrUrArUrCrAmAmCmUmUmGmAmAmAmAmAmGmUmGmGmCmAmCmCmGmAmGmUmCmGmGmUmGmCmU*mU*mU*mU
# Tests used:
# [1] = tested on: off-target integration sites; experiment: Off-target oligo insertion based assay in primary human hepatocytes (Table 30); format: cell-based; conditions: TTR sgRNAs in PHH, 100 ng Cas9 mRNA, 25 nM sgRNA, 12.5 nM donor oligo
# Protocol: Off-target analysis of sgRNAs targeting TTR was performed in primary human hepatocytes (PHH) as described in Example 5, with the following modifications. PHH were plated at a density of 33,000 cells per well on collagen-coated 96-well plates as described in Example 1. Twenty-four hours post plating, cells were washed with media and transfected using Lipofectamine RNAiMAX (ThermoFisher, Cat. 13778150) as described in Example 1. Cells were transfected with a lipoplex containing 100 ng Cas9 mRNA, immediately followed by the addition of another lipoplex containing 25 nM of the sgRNA and 12.5 nM of the donor oligo (0.3 μL/well). Cells were lysed 48 hours post-transfection and gDNA was extracted and analyzed as further described in Example 5. The data is graphically represented in FIG. 20.
# Fewer sites were detected in PHH for every guide tested as compared to the HekCas9 cell line, with no unique sites detected in PHH alone.
# TTR = TTR editing in primary human hepatocytes transfected with Spy Cas9 protein and sgRNAs (Table 12); format: cell-based; conditions: primary human hepatocytes transfected with Spy Cas9 protein (RNP) and sgRNAs
# Protocol: Primary liver hepatocytes. Primary human liver hepatocytes (PHH) and primary cynomolgus liver hepatocytes (PCH) (Gibco) were cultured per the manufacturer's protocol (Invitrogen, protocol 11.28.2012). In brief, the cells were thawed and resuspended in hepatocyte thawing medium with supplements (Gibco, Cat. CM7000) followed by centrifugation at 100 g for 10 minutes for human and 80 g for 4 minutes for cyno. The supernatant was discarded and the pelleted cells resuspended in hepatocyte plating medium plus supplement pack (Invitrogen, Cat. A1217601 and CM3000). Cells were counted and plated on Bio-coat collagen I coated 96-well plates (ThermoFisher, Cat. 877272) at a density of 33,000 cells/well for human or 60,000 cells/well for cyno (or 65,000 cells/well when assaying effects on TTR protein, described further below). Plated cells were allowed to settle and adhere for 6 or 24 hours in a tissue culture incubator at 37° C. and 5% CO2 atmosphere. After incubation cells were checked for monolayer formation and media was replaced with hepatocyte culture medium with serum-free supplement pack (Invitrogen, Cat. A1217601 and CM4000).
# […] formation was performed prior to electroporation or transfection of Spy Cas9 protein loaded with guide RNAs (RNPs) onto cells. For dual guide (dgRNAs), individual crRNA and trRNA was pre-annealed by mixing equivalent amounts of reagent and incubating at 95° C. for 2 min and cooling to room temperature. Single guide (sgRNAs) were boiled at 95° C. for 2 min and cooling to room temperature. The boiled dgRNA or sgRNA was incubated with Spy Cas9 protein in Optimem for 10 minutes at room temperature to form a ribonucleoprotein (RNP) complex.
# For RNP lipoplex transfections, cells were transfected with Lipofectamine RNAiMAX (ThermoFisher, Cat. 13778150) per the manufacturer's protocol. Cells were transfected with an RNP containing Spy Cas9 (10 nM), individual guide (10 nM), tracer RNA (10 nM), Lipofectamine RNAiMAX (1.0 μL/well) and OptiMem. RNP formation was performed as described above.
# Transfected cells were harvested post-transfection at 24, 48, or 72 hours. The genomic DNA was extracted from each well of a 96-well plate using 50 μL/well BuccalAmp DNA Extraction solution (Epicentre, Cat. QE09050) per manufacturer's protocol. All DNA samples were subjected to PCR and subsequent NGS analyses, as described herein.
# To quantitatively determine the efficiency of editing at the target location in the genome, sequencing was utilized to identify the presence of insertions and deletions introduced by gene editing.
# Primers were designed around the target site within the gene of interest (e.g. TTR), and the genomic area of interest was amplified.
# Additional PCR was performed per the manufacturer's protocols (Illumina) to add chemistry for sequencing. The amplicons were sequenced on an Illumina MiSeq instrument. The reads were aligned to a reference genome (e.g., the human reference genome (hg38), the cynomologus reference genome (mf5), the rat reference genome (rn6), or the mouse reference genome (mm10)) after eliminating those having low quality scores. The resulting files containing the reads were mapped to the reference genome (BAM files), where reads that overlapped the target region of interest were selected and the number of wild type reads versus the number of reads which contain an insertion, substitution, or deletion was calculated.
# The editing percentage (e.g., the “editing efficiency” or “percent editing” or “indel frequency”) is defined as the total number of sequence reads with insertions/deletions (“indels”) or substitutions over the total number of sequence reads, including wild type.
# Guides in modified sgRNA format targeting human and/or cyno TTR were delivered to primary human hepatocytes and primary cyno hepatocytes as described in Example 1. […]
Molecule,# Sites in PHH [1],Avg % Deletion (TTR) [%],Avg % Edit (TTR) [%],Avg % Insert (TTR) [%]
B1,0,59.93,69.73,9.83
B2,5,3.13,60.97,57.90
B3,0,2.07,67.30,65.27
B4,7,4.33,74.30,70.27
B5,0,27.67,72.33,44.73
B6,3,3.13,56.07,53.07
B7,1,5.37,50.80,45.80
